Data from article PMC3293552.

Target: Fluorescein-labeled ATS-FL Q150C variant (Plasmodium falciparum)
Assay: fluorescence polarisation

PFI1780w fragment spanning residues 80-280 (PHISTc-type domain) (domain or fragment)
Kd: 150 µM
